Patent US20140120095A1 (Boehringer Ingelheim, published 2014)

T1: cynomolgus DLL4 overexpressed on cells (cynomolgus, UniProt Q9NR61 27-685 (human entry))
T1 construct: also called cyno DII4; cDLL4
T1 chain: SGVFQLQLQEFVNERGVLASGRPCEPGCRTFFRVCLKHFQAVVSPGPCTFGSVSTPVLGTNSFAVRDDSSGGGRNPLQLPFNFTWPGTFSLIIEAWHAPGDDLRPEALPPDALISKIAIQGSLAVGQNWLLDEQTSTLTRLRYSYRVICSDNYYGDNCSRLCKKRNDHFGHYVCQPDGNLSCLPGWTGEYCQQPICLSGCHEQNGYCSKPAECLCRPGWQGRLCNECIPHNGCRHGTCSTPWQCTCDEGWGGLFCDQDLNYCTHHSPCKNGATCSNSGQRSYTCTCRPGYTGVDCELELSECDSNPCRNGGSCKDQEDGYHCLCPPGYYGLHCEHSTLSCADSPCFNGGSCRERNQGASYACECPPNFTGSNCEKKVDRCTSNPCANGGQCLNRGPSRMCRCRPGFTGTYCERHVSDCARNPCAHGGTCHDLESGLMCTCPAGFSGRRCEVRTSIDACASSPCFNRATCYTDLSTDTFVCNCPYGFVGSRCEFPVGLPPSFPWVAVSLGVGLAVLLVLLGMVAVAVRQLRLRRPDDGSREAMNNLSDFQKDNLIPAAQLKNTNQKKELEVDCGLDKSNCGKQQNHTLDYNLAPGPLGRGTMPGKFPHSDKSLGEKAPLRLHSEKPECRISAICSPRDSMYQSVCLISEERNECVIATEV

T2: human DLL1 (human, UniProt O00548 18-545, limits assumed)
T2 construct: also called hDLL1
T2 sequence (looked up): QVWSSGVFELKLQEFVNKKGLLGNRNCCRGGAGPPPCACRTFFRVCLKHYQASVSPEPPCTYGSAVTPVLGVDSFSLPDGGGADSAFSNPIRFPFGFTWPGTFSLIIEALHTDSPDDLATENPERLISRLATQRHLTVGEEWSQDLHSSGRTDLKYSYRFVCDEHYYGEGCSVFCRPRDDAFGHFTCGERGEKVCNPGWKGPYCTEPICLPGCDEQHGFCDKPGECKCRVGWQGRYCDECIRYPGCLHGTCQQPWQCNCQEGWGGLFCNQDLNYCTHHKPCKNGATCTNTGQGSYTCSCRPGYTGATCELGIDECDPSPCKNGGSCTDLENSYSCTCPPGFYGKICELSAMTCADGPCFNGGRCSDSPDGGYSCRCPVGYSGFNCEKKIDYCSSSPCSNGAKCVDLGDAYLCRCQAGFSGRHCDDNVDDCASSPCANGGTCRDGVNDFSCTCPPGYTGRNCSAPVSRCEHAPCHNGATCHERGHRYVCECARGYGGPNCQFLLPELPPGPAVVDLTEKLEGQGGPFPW


Experiments:
recombinant human DLL4 [1] = target: T3, recombinant human DLL4 (human, UniProt Q9NR61 25-522); test: binding ELISA, coated rhDLL4
T3 construct: also called rhDLL4; hDLL4
Method: (§1) In order to determine cross-reactivity to mouse DII4 a binding ELISA is performed. […] Wells are blocked with a casein solution (1% in PBS). VHHs are applied as dilution series and binding is detected using a mouse anti-myc (Roche) and an anti-mouse-AP conjugate (Sigma, St Louis, Mo., USA) (FIG. 7 A-H). As reference, binding to human DII4 is measured.

recombinant human DLL4 [2] = target: T3, recombinant human DLL4; test: competition AlphaScreen, biot-hDLL4/hNotch1-Fc
Method: In brief, 1 nM biotinylated human DII4 is captured on streptavidin-coated donor beads (20 μg/mL), while 0.4 nM of the receptor human Notch1 (as a Fc fusion protein) is captured on anti-human Fc VHH-coated acceptor beads (20 μg/mL). Both loaded beads are incubated together with a dilution range of the competing VHH (FIG. 4 A-E).

recombinant mouse DLL4 = target: T4, recombinant mouse DLL4 (mouse, UniProt Q9JI71 27-532); test: binding ELISA, coated rmDLL4
T4 construct: extracellular domain; also called rmDLL4; mDLL4
T4 sequence (Q9JI71 27-532): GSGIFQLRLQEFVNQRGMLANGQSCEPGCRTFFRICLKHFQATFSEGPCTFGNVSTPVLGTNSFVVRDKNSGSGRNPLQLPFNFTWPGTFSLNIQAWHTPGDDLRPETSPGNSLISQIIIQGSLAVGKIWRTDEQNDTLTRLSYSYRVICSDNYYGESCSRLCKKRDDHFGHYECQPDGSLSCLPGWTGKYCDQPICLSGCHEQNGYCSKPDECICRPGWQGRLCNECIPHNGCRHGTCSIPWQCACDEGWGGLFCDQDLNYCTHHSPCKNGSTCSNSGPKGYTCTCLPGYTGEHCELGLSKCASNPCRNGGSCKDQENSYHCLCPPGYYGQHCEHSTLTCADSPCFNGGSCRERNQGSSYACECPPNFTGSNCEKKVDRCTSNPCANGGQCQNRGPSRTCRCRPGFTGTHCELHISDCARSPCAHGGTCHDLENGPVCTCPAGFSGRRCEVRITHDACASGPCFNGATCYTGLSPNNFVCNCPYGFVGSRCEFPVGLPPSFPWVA
Method: as §1

[3] = target: T5, human DLL4 overexpressed on cells (human, UniProt Q9NR61 27-685); test: competitive FMAT, hNotch1-Fc on CHO-hDLL4
T5 construct: full length human DLL4 on CHO or HEK293 cells; also called CHO-hDLL4; CHO-hDII4

human Jagged-1 = target: T6, human Jagged-1 (human, UniProt P78504 34-1067, limits assumed); test: binding ELISA on coated recombinant human Jagged-1, OD 405 nm
T6 construct: also called hJagged-1; hJAG1
Method: (§2) Absence of binding to homologous ligands human DLL1 and human Jagged-1 is assessed via solid phase binding assay (ELISA). In brief, human DLL1 (Alexis, San Diego, Calif., USA) and human Jagged-1 (Alexis, San Diego, Calif., USA) are coated overnight at 4° C. at 1 μg/mL in a 96-well MaxiSorp plate (Nunc, Wiesbaden, Germany). Wells are blocked with a casein solution (1% in PBS). VHHs are applied as dilution series and binding is detected using a mouse anti-myc (Roche) and an anti-mouse-AP conjugate (Sigma, St. Louis, Mo., USA).

recombinant human DLL4 [4] = target: T3, recombinant human DLL4; test: competition ELISA, biot-hDLL4 to coated hNotch1-Fc
Excerpt: Residual binding of biotinylated human DII4 is detected using horseradish peroxidase (HRP) conjugated extravidin (Sigma, St. Louis, Mo., USA) (FIG. 3 A-C). Human DII4 is biotinylated as described above.

[5] = target: T1, cynomolgus DLL4 overexpressed on cells; test: FACS titration on HEK293-cDLL4 cells, MCF
Method: (§3) In order to determine the cynomologus cross-reactivity of the VHHs, a FACS binding experiment is performed. Cynomolgus DII4 expressing HEK293 cells (transient or stable transfection) are used for a titration binding experiment of the VHHs. After a 30 minutes incubation on ice, all samples are washed and detection is performed by applying anti-c-myc˜Alexa647 (Santa Cruz Biotechnology, Santa Cruz, Calif., USA). Human and mouse DII4 overexpressing HEK293 cells are taken as reference. The mean MCF value is determined on the FACS Array and used for calculation of the EC₅₀ value (see FIG. 9 A-E).

[6] = target: T5, human DLL4 overexpressed on cells; test: FACS titration on HEK293-hDLL4 cells, MCF
Method: as §3

[7] = target: T7, mouse DLL4 overexpressed on cells (mouse, UniProt Q9JI71 27-686); test: competitive FMAT, hNotch1-Fc on CHO-mDLL4
T7 construct: whole, on cells; also called CHO-mDLL4; CHO-mDII4
T7 sequence (Q9JI71 27-686): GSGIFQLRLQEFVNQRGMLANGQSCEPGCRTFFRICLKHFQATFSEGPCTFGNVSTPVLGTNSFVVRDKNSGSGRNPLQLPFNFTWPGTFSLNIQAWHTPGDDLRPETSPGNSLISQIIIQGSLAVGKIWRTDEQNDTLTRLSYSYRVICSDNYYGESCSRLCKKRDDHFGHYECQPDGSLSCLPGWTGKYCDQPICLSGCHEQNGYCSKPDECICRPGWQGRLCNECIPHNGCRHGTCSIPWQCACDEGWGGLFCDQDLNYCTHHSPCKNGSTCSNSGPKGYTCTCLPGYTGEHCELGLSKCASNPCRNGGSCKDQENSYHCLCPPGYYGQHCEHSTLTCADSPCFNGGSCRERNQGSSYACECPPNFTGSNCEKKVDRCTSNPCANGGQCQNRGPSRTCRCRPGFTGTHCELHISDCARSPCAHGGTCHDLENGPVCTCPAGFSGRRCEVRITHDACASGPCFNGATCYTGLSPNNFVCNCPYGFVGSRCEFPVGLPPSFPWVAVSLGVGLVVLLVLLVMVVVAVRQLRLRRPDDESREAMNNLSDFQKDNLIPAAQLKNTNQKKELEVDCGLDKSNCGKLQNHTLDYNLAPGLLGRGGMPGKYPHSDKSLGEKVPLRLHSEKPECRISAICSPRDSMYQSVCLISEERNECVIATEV

human DLL1 = target: T2, human DLL1; test: binding ELISA on coated recombinant human DLL1, OD 405 nm
Method: as §2

recombinant human DLL4 [8] = target: T3, recombinant human DLL4; test: SPR Biacore T100, hDLL4 on chip, VHH/Fab injected
Method: Kinetic analysis to determine the affinity of the DII4-VHH interaction is performed by Surface Plasmon Resonance (SPR) on a Biacore T100 instrument. […] Purified VHHs or Fab fragment are injected for 2 minutes at different concentrations (between 10 and 300 nM) and allowed to dissociate for 20 min at a flow rate of 45 μl/min. Between sample injections, the surfaces are regenerated with 10 mM glycine pH1.5 and 100 mM HCl. HBS-N (Hepes buffer pH7.4) is used as running buffer. If possible, data are evaluated by fitting a 1:1 interaction model (Langmuir binding) onto the binding curves. The affinity constant KD is calculated from resulting association and dissociation rate constants (kₐ) and […].

[9] = target: T8, recombinant human VEGF165 (human, UniProt P15692-4 27-191, biotinylated in the competition assays); test: AlphaScreen, hVEGF165/hVEGFR2-Fc competition, -HSA
T8 construct: Bought protein; also called hVEGF165; rhVEGF165
T8 sequence (P15692 other isoform, or with tags, fused parts or gaps): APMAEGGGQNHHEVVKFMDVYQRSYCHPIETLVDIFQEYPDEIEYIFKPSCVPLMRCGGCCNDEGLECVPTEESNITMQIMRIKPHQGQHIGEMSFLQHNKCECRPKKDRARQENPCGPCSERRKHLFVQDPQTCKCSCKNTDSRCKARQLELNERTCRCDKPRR

[10] = target: T8, recombinant human VEGF165; test: AlphaScreen, hVEGF165/hVEGFR1-Fc competition, -HSA
[11] = target: T9, human DLL4, full length, overexpressed on cells (human, UniProt Q9NR61 27-685); test: FMAT, hNotch1-Fc on CHO-hDLL4, -HSA
T9 construct: CHO cells in FMAT, HEK293 cells in the reporter assay; also called hDLL4; CHO-hDLL4

[12] = target: T10, mouse DLL4, full length, overexpressed on CHO cells (mouse, UniProt Q9JI71 27-686); test: FMAT, hNotch1-Fc on CHO-mDLL4, -HSA
T10 construct: whole, on cells; also called mDLL4; CHO-mDLL4

Row | Binder | EC50 (recombinant human DLL4 [1]) | IC50 (recombinant human DLL4 [2]) | EC50 (recombinant mouse DLL4) | IC50 [3] | binding result (human Jagged-1) | IC50 (recombinant human DLL4 [4]) | EC50 (read off the curve) [5] | EC50 (read off the curve) [6] | IC50 [7] | binding result (human DLL1) | % inh [9] | IC50 [9] | % inh [10] | IC50 [10] | % inh [11] | IC50 [11] | % inh [12] | IC50 [12] | also measured
1 | DLLBII55D12 (VHH) VHH: EVQLVESGGGLVQPGGSLRLSCAASGFTFDDYAIGWFRQAPGKEPEGISCISSSGGITYYADSVKGRFTISRDNAKNTVYLQMNSLKPEDTAVYYCATPGIAACRGIHYTGQGTQVTVSS | 13.1 nM | 2.3 nM | 30 nM | 39.1 nM | no binding (tested: 2.5e-7 M) | 12.3 nM | ~6 nM | ~7 nM | 41 nM | no binding (tested: 2.5e-7 M) |  |  |  |  |  |  |  |  | 
2 | DLLBII56C04 (VHH) VHH: EVQLVESGGGLVQPGGSLRLSCTASGFTFDVYAIGWFRQAPGKEPEGISCISSSGSITYYADSVKGRFTTSRDSAKNTVYLQMNSLKPEDTAVYYCATPGIAACRGIHYWGQGTQVTVSS | 44.3 nM | 5.4 nM | 244 nM | 28.7 nM | no binding (tested: 2.5e-7 M) | 33.9 nM | ~6 nM | ~6 nM | 49.6 nM | no binding (tested: 2.5e-7 M) |  |  |  |  |  |  |  |  | Kd (recombinant human DLL4 [8]): 45 nM; koff (recombinant human DLL4 [8]): 0.0049 s⁻¹; kon (recombinant human DLL4 [8]): 110000 M⁻¹ s⁻¹
3 | DLLBII57C11 (VHH) VHH: EVQLVESGGGLVQPGGSLRLSCTASGFTFDDYAIGWFRQAPGKEPEGISCISSSGSITYDADSVKGRFTISRDNAKNTVYLQMNSLKPEDTAVYYCATPGIAACRGIHYWGQGTQVTVSS | 7.9 nM | 2.2 nM | 83.4 nM | 53.9 nM | no binding (tested: 2.5e-7 M) | 17.3 nM | ~10 nM | ~10 nM | 49.5 nM | no binding (tested: 2.5e-7 M) |  |  |  |  |  |  |  |  | 
4 | A3 (bispecific antibody, PEGylated at the Cys at position 15 of the 35 Gly-Ser linker, VEGFBII038 - 35GS(Cys15) - VEGFBII032 - 35GS - DLLBII018) VQLVESGGGLVQPGGSLRLSCAASGRTFSSYSMGWFRQAPGKEREFVVAISKGGYKYDAVSLEGRFTISRDNAKNTVYLQINSLRPEDTAVYYCASSRAYGSSRLRLADTYEYWGQGTLVTVSSGGGGSGGGGSGGGGCGGGGSGGGGSGGGGSGGGGSEVQLVESGGGLVQPGGSLRLSCAASGIRFISMAWYRQAPGKQRELVARISSGGTTAYADSVKGRFTISRDNSKNTVYLQMNSLRAEDTAVYYCNTFSSRPNPWGQGTLVTVSSGGGGSGGGGSGGGGSGGGGSGGGGSGGGGSGGGGSEVQLVESGGGLVQPGGSLRLSCAASGRTFSSYAMAWYRQAPGKEREYVAAIRWSGGTAYYADSVKGRFTISRDNAKNTVYLQMNSLRPEDTAVYYCANRAPDTRLAPYEYDHWGQGTLVTVSS |  |  |  |  |  |  |  |  |  |  | 100% | 0.01 nM | 97% | 0.02 nM | 97% | 16.1 nM | 95% | 7.9 nM | 
5 | DLLBII039 (VHH) VHH: EVQLVESGGGLVQPGGSLRLSCAASGFTIGSYDMSWVRRAPGKGPEWVSSISSGGGSTYYADYVKGRFTISRDNAKNTLYLQMNSLRPEDTAVYYCAADRYIWARQGEYWGAYEYDYWGQGTLVTVSS |  |  |  |  |  |  |  |  |  |  |  |  |  |  | 102% | 3.6 nM | 100% | 6.7 nM | 
6 | A1 (bispecific antibody, PEGylated at the Cys at position 15 of the 35 Gly-Ser linker, VEGFBII038 (N-terminal E missing) - 35GS(Cys15) - DLLBII018) VQLVESGGGLVQPGGSLRLSCAASGRTFSSYSMGWFRQAPGKEREFVVAISKGGYKYDAVSLEGRFTISRDNAKNTVYLQINSLRPEDTAVYYCASSRAYGSSRLRLADTYEYWGQGTLVTVSSGGGGSGGGGSGGGGCGGGGSGGGGSGGGGSGGGGSEVQLVESGGGLVQPGGSLRLSCAASGRTFSSYAMAWYRQAPGKEREYVAAIRWSGGTAYYADSVKGRFTISRDNAKNTVYLQMNSLRPEDTAVYYCANRAPDTRLAPYEYDHWGQGTLVTVSS |  |  |  |  |  |  |  |  |  |  | 100% | 0.07 nM | 80% | 0.1 nM | 102% | 6.7 nM | 100% | 3.4 nM | 
